How the values were obtained:
[1] = target: MsDisA_(1-158) (only N-terminal domain-1) (Mycobacterium smegmatis mc2155); assay: SEC-MALS
[2] = target: MsDisA_(1-316) (domains 1 and 2) (Mycobacterium smegmatis mc2155); assay: SEC-MALS
[3] = target: MsDisA_(132-372) (domains 2 and 3) (Mycobacterium smegmatis mc2155); assay: SEC-MALS
[4] = target: Mycobacterium smegmatis DNA integrity scanning protein (MsDisA), c-di-AMP synthase (Mycobacterium smegmatis mc2155); assay: SEC-MALS
[5] = target: Mycobacterium smegmatis DNA integrity scanning protein (MsDisA), c-di-AMP synthase (Mycobacterium smegmatis mc2155); assay: cryo-EM structure
[6] = target: Mycobacterium smegmatis DNA integrity scanning protein (MsDisA), c-di-AMP synthase (Mycobacterium smegmatis mc2155); assay: negative-stain TEM

## MsDisA_(1-158) (only N-terminal domain-1) (domain or fragment)
[1]
  stoichiometry N: 8

## MsDisA_(1-316) (domains 1 and 2) (domain or fragment)
[2]
  stoichiometry N: 8

## MsDisA_(132-372) (domains 2 and 3) (domain or fragment)
[3]
  stoichiometry N: 2

## Mycobacterium smegmatis DNA integrity scanning protein (MsDisA), c-di-AMP synthase (enzyme)
[4]
  stoichiometry N: 8
[5]
  stoichiometry N: 8
[6]
  stoichiometry N: 8

Reference: publication doi:10.1101/2021.11.20.466133
